T1: BP (B…US) (Arabidopsis thaliana, UniProt P46639 1-398)
T1 sequence: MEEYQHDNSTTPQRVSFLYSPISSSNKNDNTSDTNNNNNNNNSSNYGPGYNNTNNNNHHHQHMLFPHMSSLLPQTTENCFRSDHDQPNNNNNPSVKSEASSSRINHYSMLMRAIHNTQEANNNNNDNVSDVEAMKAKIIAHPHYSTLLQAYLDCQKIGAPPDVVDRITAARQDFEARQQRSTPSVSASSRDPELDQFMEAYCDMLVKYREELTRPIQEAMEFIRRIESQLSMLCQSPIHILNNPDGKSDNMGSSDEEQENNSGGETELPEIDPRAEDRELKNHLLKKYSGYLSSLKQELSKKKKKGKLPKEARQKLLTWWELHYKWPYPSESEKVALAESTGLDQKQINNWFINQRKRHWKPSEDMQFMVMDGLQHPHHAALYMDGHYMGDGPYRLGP

B1: XTH7 promoter probe, unlabeled competitor (dsDNA)
DNA 1: TGTAATGCTGACACGTGTCCCAGT
DNA 2: ACTGGGACACGTGTCAGCATTACA
B2: XTH7 promoter probe (TGAC) (dsDNA)
DNA 1: TGTAATGCTGACACGTGTCCCAGT
DNA 2: ACTGGGACACGTGTCAGCATTACA

Assays:
BP (B…US) [1] = molecular target: T1, BP (B…US); test: competition; unlabeled competitor against biotin-labelled N1; signal gradually decreased; LightShift Chemiluminescent EMSA kit (Thermo) per manufacturer's protocol; buffer, salt, pH and temperature not stated; conditions: protein: recombinant; tags: GST (pGEX4T-3); blunt
BP (B…US) [2] = molecular target: T1, BP (B…US); test: EMSA; LightShift Chemiluminescent EMSA kit (Thermo) per manufacturer's protocol; buffer, salt, pH and temperature not stated; conditions: protein: recombinant; tags: GST (pGEX4T-3); label: biotin; blunt

| Binder | binding result (BP (B…US) [1]) | binding result (BP (B…US) [2]) |
| --- | --- | --- |
| B1 | binds |  |
| B2 |  | binds |

Source: PMC9866879, “BREVIPEDICELLUS Positively Regulates Salt-Stress Tolerance in Arabidopsis thaliana”
